The values that follow come from PMC12903045.

The target in this experiment is NaV1.5 (main cardiac voltage-gated sodium channel) (mouse (endogenous in heart)) (UniProt Q9JJV9). Kind of experiment: co-IP.
Chain of UniProt Q9JJV9 (Q9JJV9 whole entry): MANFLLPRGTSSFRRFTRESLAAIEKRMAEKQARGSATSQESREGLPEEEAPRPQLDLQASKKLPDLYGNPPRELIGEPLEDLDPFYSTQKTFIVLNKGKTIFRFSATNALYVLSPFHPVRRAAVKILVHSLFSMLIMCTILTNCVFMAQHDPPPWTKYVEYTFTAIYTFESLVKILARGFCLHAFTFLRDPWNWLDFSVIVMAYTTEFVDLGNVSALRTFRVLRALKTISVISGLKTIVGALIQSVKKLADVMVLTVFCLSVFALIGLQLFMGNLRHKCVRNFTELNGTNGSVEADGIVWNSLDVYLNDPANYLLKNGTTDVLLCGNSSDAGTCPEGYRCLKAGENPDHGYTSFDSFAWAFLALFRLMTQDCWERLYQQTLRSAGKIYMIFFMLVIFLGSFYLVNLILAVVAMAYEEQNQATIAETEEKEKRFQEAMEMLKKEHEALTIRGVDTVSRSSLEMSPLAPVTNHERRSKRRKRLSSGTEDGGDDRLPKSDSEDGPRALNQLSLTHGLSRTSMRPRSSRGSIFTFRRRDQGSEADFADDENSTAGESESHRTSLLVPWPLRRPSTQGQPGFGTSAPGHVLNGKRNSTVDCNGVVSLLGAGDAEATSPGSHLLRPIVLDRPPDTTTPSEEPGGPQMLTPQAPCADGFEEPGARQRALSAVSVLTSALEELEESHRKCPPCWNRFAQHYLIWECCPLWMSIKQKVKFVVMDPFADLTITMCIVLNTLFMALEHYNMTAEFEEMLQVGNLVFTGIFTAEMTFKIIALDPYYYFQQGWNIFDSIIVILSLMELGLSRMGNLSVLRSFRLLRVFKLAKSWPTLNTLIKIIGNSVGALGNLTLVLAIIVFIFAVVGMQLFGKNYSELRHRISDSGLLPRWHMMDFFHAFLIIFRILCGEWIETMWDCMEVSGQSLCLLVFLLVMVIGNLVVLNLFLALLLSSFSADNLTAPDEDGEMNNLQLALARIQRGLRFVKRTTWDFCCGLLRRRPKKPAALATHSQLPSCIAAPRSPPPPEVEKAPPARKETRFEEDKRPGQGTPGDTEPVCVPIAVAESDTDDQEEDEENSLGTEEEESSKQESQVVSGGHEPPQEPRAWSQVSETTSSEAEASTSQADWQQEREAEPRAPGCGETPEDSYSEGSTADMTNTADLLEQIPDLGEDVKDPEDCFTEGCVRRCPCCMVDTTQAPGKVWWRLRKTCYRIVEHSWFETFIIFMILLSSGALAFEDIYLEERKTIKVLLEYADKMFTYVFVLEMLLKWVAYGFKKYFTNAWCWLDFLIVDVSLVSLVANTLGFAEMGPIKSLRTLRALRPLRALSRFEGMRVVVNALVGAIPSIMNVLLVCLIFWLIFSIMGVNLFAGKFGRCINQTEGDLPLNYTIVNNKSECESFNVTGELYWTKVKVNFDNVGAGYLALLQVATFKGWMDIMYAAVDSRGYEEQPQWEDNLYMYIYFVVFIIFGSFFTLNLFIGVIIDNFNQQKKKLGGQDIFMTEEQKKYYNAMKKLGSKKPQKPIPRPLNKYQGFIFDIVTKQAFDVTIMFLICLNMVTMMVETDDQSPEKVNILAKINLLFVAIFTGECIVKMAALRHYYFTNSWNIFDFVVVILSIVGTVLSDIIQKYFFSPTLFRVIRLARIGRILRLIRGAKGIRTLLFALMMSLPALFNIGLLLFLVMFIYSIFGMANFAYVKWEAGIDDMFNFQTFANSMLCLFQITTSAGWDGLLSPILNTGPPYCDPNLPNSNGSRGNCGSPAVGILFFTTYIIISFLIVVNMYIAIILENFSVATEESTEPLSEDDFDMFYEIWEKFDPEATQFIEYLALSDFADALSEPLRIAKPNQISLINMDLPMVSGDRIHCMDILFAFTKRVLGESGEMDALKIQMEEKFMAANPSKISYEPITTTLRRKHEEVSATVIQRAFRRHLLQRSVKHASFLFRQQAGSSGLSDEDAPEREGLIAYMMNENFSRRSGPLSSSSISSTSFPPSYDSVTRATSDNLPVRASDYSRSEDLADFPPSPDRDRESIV

For the substance “FGF13 (fibroblast growth factor homologous factor 13) (from UniProt P70377 1-245) (natural protein)”, the percent of FGF13 depleted from the lysate by immunoprecipitation of NaV1.5 was determined as 35%.
